{
  "source": "paper PMC3248800",
  "target": "αβ T cell receptor A6 (human)",
  "experiment": "SPR",
  "data": [
    {"substance": "Tel1p-HLA-A2 (A150P) complex (from UniProt P61769 21-119) (peptide-MHC)", "values": [
      {"measurement": "Kd", "value": 5, "unit": "µM"}
    ]},
    {"substance": "Tel1p-HLA-A2 complex (S. cerevisiae Tel1p peptide … presented by wild-type HLA-A*0201) (from UniProt P61769 21-119) (peptide-MHC)", "values": [
      {"measurement": "Kd", "value": 41, "unit": "µM"},
      {"measurement": "dH", "value": -3, "unit": "kcal/mol"}
    ]}
  ]
}
